PMC12375888 (Febs Letters, 2025)

Legend:
[1] = target: T1, Mycobacterium tuberculosis thiosulfate sulfurtransferase SseA (Mycobacterium tuberculosis, UniProt P9WHF7 1-297, RED-NHS dye on primary amines (lysine residues), degree of labeling ~0.5, in the MST experiment only); assay: cell-based or functional assay
T1 sequence: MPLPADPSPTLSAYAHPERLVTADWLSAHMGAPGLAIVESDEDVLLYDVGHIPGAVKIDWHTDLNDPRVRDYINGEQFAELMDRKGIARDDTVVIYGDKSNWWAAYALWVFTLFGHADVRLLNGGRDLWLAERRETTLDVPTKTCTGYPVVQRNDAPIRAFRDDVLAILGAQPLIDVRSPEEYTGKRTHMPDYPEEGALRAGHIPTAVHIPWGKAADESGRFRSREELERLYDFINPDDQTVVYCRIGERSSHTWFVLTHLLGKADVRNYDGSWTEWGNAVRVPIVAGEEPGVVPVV

[2] = target: T1, Mycobacterium tuberculosis thiosulfate …; assay: ITC; 10 uM SseA in the cell titrated with 100 uM SufE; PBS pH 8.0 (phosphate 20 mM, NaCl 150 mM, DTT 2 mM), 25 °C; single binding site model; conditions: both partners purified
[3] = target: T1, Mycobacterium tuberculosis thiosulfate …; assay: MST; 10 nM SseA labelled with RED-NHS dye, label-free SufE Mtb titrated from 1.5 nM to 50 uM; 25 °C, 50 mM sodium phosphate pH 7.8, 0.05% Tween-20; Monolith NT.115; conditions: both partners purified

B1: Mycobacterium tuberculosis SufE-like protein Rv3284 (SufE Mtb) (natural protein)
chain: MTAPASLPAPLAEVVSDFAEVQGQDKLRLLLEFANELPALPSHLAESAMEPVPECQSPLFLHVDASDPNRVRLHFSAPAEAPTTRGFASILAAGLDEQPAADILAVPEDFYTELGLAALISPLRLRGMSAMLARIKRRLREAD
notes: Tag-free after TEV cleavage; also called SseE; not shown: His6, N-terminal, cleaved; GST, N-terminal, cleaved
Question: Which results are given for B1?
Answer: thiosulfate:cyanide sulfurtransferase activity of 10 uM SseA with increasing SufE Mtb (10-100 uM) [1]: 4 fold; Kd [2]: 3.3 ± 0.6 µM; dH [2]: -11.6 kcal/mol; stoichiometry N [2]: 1; Kd [3]: 3 ± 0.7 µM
